Experimental findings from paper PMC8923076 (Cell chemical biology, 2021) are described below.

The target of this test is GST-fused GAS41 YEATS domain (residues 1-148) (human, UniProt O95619 1-148). The experiment in a line: fluorescence polarisation. (In general: Fluorescence polarisation rises when a labelled molecule tumbles more slowly, as on binding a larger partner.)
GST-fused GAS41 YEATS domain (residues 1-148), sequence (O95619 1-148): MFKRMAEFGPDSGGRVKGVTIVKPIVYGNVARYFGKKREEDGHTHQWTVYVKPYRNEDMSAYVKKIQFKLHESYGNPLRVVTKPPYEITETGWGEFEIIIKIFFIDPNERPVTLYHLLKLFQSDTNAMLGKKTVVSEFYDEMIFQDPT

In the case of GGKAPRKQLATKAARKSAP (N-terminal acetyl; acetyl-lysine at K18 and K27; C-terminal amide) [H3K18acK27ac peptide], the IC50 (in general, the concentration at which inhibition is half-maximal) was 50 µM.
